[ ]: non-standard residue; d: D form.

Assay [1] deals with integrin αvβ3 (UniProt P06756). In words: SPR; Biacore X100, CM5 chip, integrin αvβ3 amine-coupled (~4200 RU), single cycle kinetics; running buffer Tris-HCl 20 mM, NaCl 150 mM, P20 0.05%, MgCl2 1 mM, pH 7.4; kinetic fit, steady state fit for fibronectin.
Assay [2] addresses integrin αvβ3 (UniProt P06756). In words: SPR; Biacore X100, CM5 chip, integrin αvβ3 amine-coupled (~4200 RU), single cycle kinetics; running buffer Tris-HCl 20 mM, NaCl 150 mM, P20 0.05%, MgCl2 1 mM and MnCl2 1 mM, pH 7.4; kinetic fit, steady state fit for fibronectin.
Assay [3] has as its target integrin αvβ3 (UniProt P06756). The assay is described as above. This is another data set of the same source.
Assay [4] deals with T1, integrin αvβ3 (UniProt P06756 31-1048; P05106 27-788).
T1 chain 1: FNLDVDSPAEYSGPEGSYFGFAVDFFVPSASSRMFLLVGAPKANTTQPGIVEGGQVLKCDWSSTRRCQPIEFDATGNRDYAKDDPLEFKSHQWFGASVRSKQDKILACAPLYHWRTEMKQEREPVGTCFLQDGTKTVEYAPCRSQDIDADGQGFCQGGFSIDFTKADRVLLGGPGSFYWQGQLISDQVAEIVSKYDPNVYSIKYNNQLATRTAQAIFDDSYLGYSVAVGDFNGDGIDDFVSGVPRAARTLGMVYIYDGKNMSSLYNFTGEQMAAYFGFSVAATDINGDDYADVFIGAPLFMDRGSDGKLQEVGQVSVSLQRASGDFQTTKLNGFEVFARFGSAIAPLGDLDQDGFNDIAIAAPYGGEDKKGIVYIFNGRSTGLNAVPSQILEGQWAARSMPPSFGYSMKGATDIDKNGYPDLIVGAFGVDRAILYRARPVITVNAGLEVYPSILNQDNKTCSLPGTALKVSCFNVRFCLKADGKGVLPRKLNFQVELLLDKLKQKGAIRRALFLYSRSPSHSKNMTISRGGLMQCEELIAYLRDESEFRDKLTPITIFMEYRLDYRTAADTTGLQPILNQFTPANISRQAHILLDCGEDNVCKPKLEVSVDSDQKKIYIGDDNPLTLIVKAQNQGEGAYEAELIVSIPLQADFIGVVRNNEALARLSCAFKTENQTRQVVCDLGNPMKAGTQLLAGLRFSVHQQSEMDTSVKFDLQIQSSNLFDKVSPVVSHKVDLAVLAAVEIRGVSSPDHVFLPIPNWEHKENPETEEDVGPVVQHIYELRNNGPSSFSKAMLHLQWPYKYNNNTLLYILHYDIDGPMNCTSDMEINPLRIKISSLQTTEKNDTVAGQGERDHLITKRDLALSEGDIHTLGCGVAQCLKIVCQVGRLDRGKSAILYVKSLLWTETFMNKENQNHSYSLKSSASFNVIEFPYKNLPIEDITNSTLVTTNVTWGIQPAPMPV
T1 chain 2: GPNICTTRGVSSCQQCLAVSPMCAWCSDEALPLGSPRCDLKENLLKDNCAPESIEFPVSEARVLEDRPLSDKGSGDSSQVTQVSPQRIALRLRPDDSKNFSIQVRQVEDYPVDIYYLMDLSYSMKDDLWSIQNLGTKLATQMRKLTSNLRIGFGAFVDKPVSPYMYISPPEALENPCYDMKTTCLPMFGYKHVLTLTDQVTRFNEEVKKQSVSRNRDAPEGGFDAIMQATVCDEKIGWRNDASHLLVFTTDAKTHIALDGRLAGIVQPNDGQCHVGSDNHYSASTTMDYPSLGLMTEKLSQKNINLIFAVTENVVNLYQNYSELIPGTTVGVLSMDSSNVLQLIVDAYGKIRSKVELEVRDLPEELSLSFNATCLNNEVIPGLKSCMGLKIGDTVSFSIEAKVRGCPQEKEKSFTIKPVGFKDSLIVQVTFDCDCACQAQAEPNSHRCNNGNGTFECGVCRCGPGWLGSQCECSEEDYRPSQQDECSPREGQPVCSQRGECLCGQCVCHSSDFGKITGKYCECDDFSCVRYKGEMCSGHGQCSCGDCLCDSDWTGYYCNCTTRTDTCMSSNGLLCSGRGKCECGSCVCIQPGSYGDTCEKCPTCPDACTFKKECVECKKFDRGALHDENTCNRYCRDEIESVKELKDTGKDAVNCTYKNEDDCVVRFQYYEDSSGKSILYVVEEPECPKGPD
In words: SPR; Mg2+ + Mn2+. On the technique in general: In SPR one partner is held on a chip, and binding of the other changes the refractive index at the surface.

In assay [5] the target is T1, integrin αvβ3. In words: SPR; Mg2+.
The target in assay [6] is integrin αvβ3 (UniProt P06756). The experiment in a line: SPR; Biacore X100, CM5 chip, integrin αvβ3 amine-coupled (~4200 RU), single cycle kinetics; running buffer Tris-HCl 20 mM, NaCl 150 mM, P20 0.05%, MgCl2 1 mM, pH 7.4; kinetic fit, steady state fit for fibronectin. The source holds these as a separate data set.
Assay [7] deals with integrin αvβ3 (UniProt P06756 31-1048; P05106 27-788). In words: SPR; Biacore X100, single cycle kinetics, in the presence of Mg2+ and Mn2+. The note with it: both partners purified.
The target in assay [8] is T1, integrin αvβ3. The experiment in a line: SPR; Mg2+.
The target in assay [9] is T1, integrin αvβ3. The experiment in a line: SPR; Mg2+ + Mn2+.

In the assay with integrin αvβ3 [1], “vitronectin (from UniProt P04004 20-478) (ligand)” had a dissociation constant Kd of 1.3 nM, a koff of 0.00021 s⁻¹ and a kon of 32000 M⁻¹ s⁻¹. Also, in the assay with integrin αvβ3 [2], the Kd came out at 24 nM, the koff came out at 0.00032 s⁻¹ and the kon was 13000 M⁻¹ s⁻¹.

B1: [^68Ga]Ga-NODAGA-E[(cRGDyK)]2 (peptide)
chain: cyclo(RGD[dY]K)
modifications: also: dimer of two cyclic peptides on a Glu linker, NODAGA chelator with 68Ga
For B1, the Kd in the assay with integrin αvβ3 [3] was determined as 0.00071 nM; in the assay with integrin αvβ3 [4] it was 0.00071 nM; with integrin αvβ3 [6] it was 0.075 nM; with integrin αvβ3 [8], 0.075 nM. Moreover, the koff amounted to 2.5e-07 s⁻¹ with integrin αvβ3 [3], 7e-05 s⁻¹ with integrin αvβ3 [5], 7e-05 s⁻¹ with integrin αvβ3 [6] and 2.5e-07 s⁻¹ with integrin αvβ3 [9]. Moreover, the figures for the on-rate (kon) in the assay with integrin αvβ3 [3] and in the assay with integrin αvβ3 [6] were 350000 M⁻¹ s⁻¹ and 930000 M⁻¹ s⁻¹, respectively. Also, in the assay with integrin αvβ3 [7], the “fold stronger binding than vitronectin” value was found to be 1000 fold.

As usually defined, the Kd is the constant that tells how readily two partners part at equilibrium. As usually defined, the koff is the first-order rate constant of dissociation. One may read the kon as the rate constant with which the complex forms. Read a high kon as faster complex formation.
